# Data taken from the Immune Epitope Database (IEDB).
# Columns and labels:
# HLA-B*51:01 = assay: IEDB peptide-MHC binding, purified MHC/competitive/radioactivity; filed as Kd, often an IC50 or EC50 that approximates it; ≥ and ≤ were set here for values at or beyond the usual limits of such assays
# HLA-B*35:01 = assay: as above; settings: source organism: Dengue virus 4 Philippines/H241/1956
# HLA-B*15:01 [1] = assay: as above
# HLA-A*24:02 [2] = assay: as above
# HLA-A*02:01 = assay: IEDB peptide-MHC binding, purified MHC/competitive/fluorescence; ≥ and ≤ were set here for values at or beyond the usual limits of such assays; settings: source organism: Zaire ebolavirus
# HLA-A*24:02 [3] = assay: as above; settings: source organism: Zaire ebolavirus
# HLA-B*39:01 = assay: IEDB peptide-MHC binding, purified MHC/competitive/fluorescence; filed as Kd, often an IC50 or EC50 that approximates it; ≥ and ≤ were set here for values at or beyond the usual limits of such assays; settings: source organism: Escherichia coli
# HLA-B*15:01 [4] = assay: as above; settings: source organism: Escherichia coli
# HLA-A*30:02 = assay: IEDB peptide-MHC binding, purified MHC/competitive/radioactivity; filed as Kd, often an IC50 or EC50 that approximates it; ≥ and ≤ were set here for values at or beyond the usual limits of such assays
# HLA-A*26:01 [5] = assay: IEDB peptide-MHC binding, purified MHC/direct/fluorescence; filed as Kd, often an IC50 or EC50 that approximates it; ≥ and ≤ were set here for values at or beyond the usual limits of such assays; settings: source organism: Salmonella enterica subsp. enterica serovar Typhimurium
# HLA-B*40:01 = assay: IEDB peptide-MHC binding, purified MHC/competitive/radioactivity; filed as Kd, often an IC50 or EC50 that approximates it; ≥ and ≤ were set here for values at or beyond the usual limits of such assays; settings: source organism: Dengue virus 4 Philippines/H241/1956
# HLA-A*01:01 = assay: as above; settings: source organism: SARS coronavirus Tor2
# HLA-A*23:01 = assay: as above; settings: source organism: SARS coronavirus Tor2
# HLA-A*03:01 = assay: as above; settings: source organism: SARS coronavirus Tor2
# HLA-A*33:01 = assay: as above; settings: source organism: SARS coronavirus Tor2
# HLA-A*31:01 = assay: as above; settings: source organism: SARS coronavirus Tor2
# HLA-A*11:01 = assay: as above; settings: source organism: SARS coronavirus Tor2
# HLA-A*26:01 [6] = assay: as above; settings: source organism: SARS coronavirus Tor2
# HLA-A*68:01 = assay: as above; settings: source organism: SARS coronavirus Tor2
# HLA-A*29:02 = assay: as above; settings: source organism: SARS coronavirus Tor2
# [7] = source organism: Vaccinia virus WR
# [8] = source organism: Dengue virus 2 Jamaica/1409/1983
# [9] = source organism: SARS coronavirus Tor2
sequence,measurement,setting,value
LPLPWTSGA,Kd,HLA-B*51:01; source organism: Dengue virus 1 Brazil/97-11/1997,926 nM
MAVLFVVTL,Kd,HLA-B*35:01,359 nM
MGLNYKLTF,Kd,HLA-B*15:01 [1]; [7],3540 nM
QLAMTDTTPF,Kd,HLA-B*15:01 [1]; source organism: Dengue virus 4 Philippines/H241/1956,2.34 nM
QMAMTDTTPF,Kd,HLA-A*24:02 [2]; [8],3560 nM
same,Kd,HLA-B*15:01 [1]; [8],7.23 nM
REPVNATED,IC50,HLA-A*02:01,≥ 383000 nM
same,IC50,HLA-A*24:02 [3],12700 nM
RHSDTAKAF,Kd,HLA-B*39:01,268 nM
same,Kd,HLA-B*15:01 [4],≥ 20000 nM
RIKQRGILGY,Kd,HLA-A*30:02; [8],20.4 nM
same,Kd,HLA-B*15:01 [1]; [8],46.6 nM
RTSFFLWVI,IC50,HLA-A*02:01,263 nM
same,IC50,HLA-A*24:02 [3],16.9 nM
RVKLGLGIM,Kd,HLA-A*26:01 [5],1300 nM
SADSFLLML,IC50,HLA-A*02:01,≥ 613000 nM
same,IC50,HLA-A*24:02 [3],≥ 177000 nM
SETFSMGLL,Kd,HLA-B*40:01,3.53 nM
SLKSLYEAF,Kd,HLA-B*15:01 [1]; [7],20.3 nM
SMMGFKMNY,Kd,HLA-A*01:01,3960 nM
same,Kd,HLA-A*30:02; [9],10.3 nM
same,Kd,HLA-A*23:01,7550 nM
same,Kd,HLA-A*03:01,4.89 nM
same,Kd,HLA-A*33:01,775 nM
same,Kd,HLA-A*31:01,213 nM
same,Kd,HLA-A*11:01,10.6 nM
same,Kd,HLA-A*26:01 [6],3900 nM
same,Kd,HLA-A*68:01,10600 nM
same,Kd,HLA-A*24:02 [2]; [9],9360 nM
same,Kd,HLA-A*29:02,13.9 nM
SPTVEESRTI,Kd,HLA-B*51:01; source organism: Dengue virus 3 Martinique/1243/1999,3780 nM
